± gives the uncertainty stated by the source.
Assay: protein stability index of a GFP-peptide fusion (yeast GPS) (PSI 1-4); higher = more stable; sorted into four equal gates, so the index is relative within each strain
Procedure, shortened: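 Plasmids in a pooled yeast library fused tiled 17-residue yeast protein peptides downstream of GFP and also expressed Cherry. Mid-log cultures grown without leucine were sorted into four equal gates by GFP/Cherry fluorescence ratio. Each gate's plasmids were PCR-amplified and Illumina-sequenced, and reads were matched to strains by barcodes. The protein stability index is derived by multiplying each gate's read frequency by its gate number and summing the results.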

| Sequence | protein stability index (doa10∆) | protein stability index (pdr5∆) | protein stability index (san1∆) | protein stability index (ubr1∆) |
| --- | --- | --- | --- | --- |
| MDIILGIRVQDSVILAS [PRE1] | 1.47 ± 0.23 | 1.62 ± 0.2 | 1.71 ± 0.24 | 1.4 ± 0.11 |
| KASTYGELVLDIEVPDV [SNF12] | 2.61 ± 0.058 | 2.28 ± 0.051 | 2.13 ± 0.075 | 1.87 ± 0.045 |
| AEFKKRKIEAETRNGKV [YCS4] | 2.82 ± 0.1 | 3.18 ± 0.072 | 3.18 ± 0.1 | 3.13 ± 0.094 |
| SGQKTNRQVMHKMGVER [SIR3] | 3.08 ± 0.21 | 3.75 ± 0.18 | 3.4 ± 0.25 | 3.27 ± 0.22 |
| SKIQEIESIRSCKDSQL [YIL149C/MLP2] | 2.29 ± 0.044 | 2.92 ± 0.054 | 2.77 ± 0.041 | 2.79 ± 0.047 |
| SPYNADFDGDEMNLHVP [RPO21] | 3.15 ± 0.076 | 3.27 ± 0.068 | 3.15 ± 0.078 | 3.1 ± 0.061 |
| NPTEFDWPTYVDQNPLT [SRB8] | 2.85 ± 0.068 | 2.44 ± 0.043 | 2.69 ± 0.054 | 2.19 ± 0.046 |
| ALRRRVGPSEQNFAEED [REC8] | 3.37 ± 0.12 | 3.51 ± 0.15 | 3.39 ± 0.11 | 3.24 ± 0.098 |
| GTAGGNTFGSSSLFNNS [YJL041W/NSP1] | 3.2 ± 0.073 | 3.09 ± 0.06 | 3.12 ± 0.055 | 3.21 ± 0.059 |
| SNQRFKDLQWLEFARIT [SIN4] | 3.17 ± 0.064 | 3.13 ± 0.057 | 2.74 ± 0.068 | 3.15 ± 0.073 |
| KNLSLQTGTKPVLKKKA [COR1] | 2.95 ± 0.07 | 3.05 ± 0.095 | 3.09 ± 0.06 | 2.79 ± 0.076 |
| KYDRILKEVPTYRYVSV [RPS25A] |  |  | 2.87 ± 0.22 | 2.89 ± 0.14 |
| ATPGRLIDSLENHLLVM [PRP28] | 2.66 ± 0.067 | 2.37 ± 0.05 | 2.06 ± 0.11 | 2.1 ± 0.06 |
| QPTNFTTKRLWSEITES [MCD1] | 1.99 ± 0.088 | 2.38 ± 0.066 | 2.04 ± 0.089 | 2.04 ± 0.09 |
| LCYMAPMTVKLVQLPKS [POP3] | 2.37 ± 0.065 | 2.23 ± 0.063 | 2.39 ± 0.06 | 2.76 ± 0.065 |
| DLRIRIKLDIVVGQNQL [SNF5] | 1.38 ± 0.088 | 1.38 ± 0.086 | 1.67 ± 0.1 | 1.75 ± 0.071 |
| LSGIIQDIYYLAQTLKL [RRI2] | 1.54 ± 0.081 | 1.66 ± 0.14 | 1.14 ± 0.092 | 1.04 ± 0.093 |
| VREFQRRLAFLGIKVAE [BRR2] | 2.06 ± 0.12 | 1.17 ± 0.14 | 1.04 ± 0.23 | 1.17 ± 0.087 |
| DVFDTLATYCPRVQGFY [GRR1] | 2.65 ± 0.075 | 2.26 ± 0.054 | 2.36 ± 0.078 | 2.6 ± 0.055 |
| SYDVENVNSRNQLVEPN [SRB5] | 3.21 ± 0.12 | 3.26 ± 0.14 | 3.42 ± 0.13 | 3.34 ± 0.12 |
| MRDKSFGRTLASVTKEI [RPL12A] | 3.25 ± 0.1 | 3.08 ± 0.12 | 2.87 ± 0.13 | 2.81 ± 0.18 |
| SMKDRAQHAVILDQEKY [RPS25A] | 1.55 ± 0.094 | 2 ± 0.13 | 2.42 ± 0.14 | 2.23 ± 0.081 |
| NGTTVWGTLQSVSPQMN [SMD1] | 3.57 ± 0.25 | 3.01 ± 0.24 | 3.39 ± 0.19 | 2.96 ± 0.18 |
| LLIADSRRPEPKKFGGK [RPS16A] | 3 ± 0.091 | 3.12 ± 0.077 | 3.23 ± 0.065 | 3.07 ± 0.05 |
| KKEENETISNVAKTAPN [SNF2] | 2.86 ± 0.072 | 3.03 ± 0.065 | 2.52 ± 0.1 | 2.94 ± 0.047 |
| GPNNFIWPAEDALRRGM [MED4] | 3.35 ± 0.13 | 3.15 ± 0.11 | 3.03 ± 0.079 | 3.27 ± 0.08 |
| NVKFLRIFISNVSENQP [SNF12] | 1.53 ± 0.095 | 1.63 ± 0.075 | 2.02 ± 0.075 | 1.95 ± 0.069 |

| Sequence | protein stability index (doa10∆) | protein stability index (pdr5∆) | protein stability index (san1∆) | protein stability index (ubr1∆) |
| --- | --- | --- | --- | --- |
| RYSNLVCKKADVDLHKR [RPS18A] | 3.05 ± 0.092 | 3.38 ± 0.096 | 3.58 ± 0.13 | 2.95 ± 0.083 |
| DEEMAVLTRMDEDRSKK [SNF2] | 3.17 ± 0.071 | 2.66 ± 0.083 | 2.42 ± 0.092 | 2.57 ± 0.072 |
| FSYFFESFESYHNLTTH [RPN6] | 2.61 ± 0.089 | 2.65 ± 0.082 | 2.85 ± 0.084 | 2.78 ± 0.066 |
| HPGFGCWLSSVDVNTQK [RPN11] | 1.25 ± 0.23 | 1.25 ± 0.24 |  |  |
| KKRRGSRIYKTIKVAGT [SNU114] | 1.6 ± 0.042 | 1.78 ± 0.045 | 1.61 ± 0.069 | 1.8 ± 0.043 |
| LSKLEKALDRHEFFIAN [SRP68] | 2.66 ± 0.055 | 2.61 ± 0.045 | 2.55 ± 0.049 | 2.64 ± 0.047 |
| NLIIFLYKFNGWSLVGR [YML103C/NUP188] | 1.59 ± 0.069 | 2.22 ± 0.11 | 2.52 ± 0.2 | 2.68 ± 0.11 |
| FELIELVTPKSFLFDVL [NUT1] | 1.92 ± 0.25 |  | 1.08 ± 0.16 | 1.06 ± 0.12 |
| AQLTHSLRRIRDEMSKA [MED8] | 2.33 ± 0.12 | 2.35 ± 0.07 | 2.02 ± 0.11 | 1.99 ± 0.052 |
| CNNINKGLKENDVAVEK [BRR2] | 3.17 ± 0.12 | 3.68 ± 0.18 | 3.25 ± 0.09 | 3.43 ± 0.12 |
| LPENIILTSLMRSKLEK [CSN9] | 2.38 ± 0.084 | 3.05 ± 0.063 | 2.78 ± 0.061 | 2.7 ± 0.048 |
| AAIRQPTRYVLIRNVGT [POP1] | 1.64 ± 0.073 | 2.07 ± 0.083 | 1.77 ± 0.11 | 1.31 ± 0.053 |
| CRELHNKHLTTLVEIFL [SSN3] | 1.59 ± 0.04 | 2.03 ± 0.045 | 1.82 ± 0.065 | 1.7 ± 0.04 |
| RQILFKYPMYMQLEEEL [MED6] | 2.18 ± 0.064 | 2.25 ± 0.069 | 2.37 ± 0.12 | 1.72 ± 0.062 |
| LIGSIRFPTKFVTQFRH [RET1] | 1.57 ± 0.056 | 1.41 ± 0.057 | 1.29 ± 0.16 | 1.31 ± 0.048 |
| LKVQKLSRPSLPKIKTV [RPL35A] | 2.41 ± 0.062 | 3.11 ± 0.072 | 3.17 ± 0.057 | 3.17 ± 0.059 |
| HSGELMRQQSKELQQLQ [SMC1] | 2.89 ± 0.15 | 2.98 ± 0.13 | 2.9 ± 0.11 | 2.7 ± 0.27 |
| DDLEKTLDKKDSIPLRI [RPN9] |  | 2.3 ± 0.14 | 2.94 ± 0.11 | 2.33 ± 0.11 |
| MISIIKLVTNVVDPKTS [YML103C/NUP188] | 1.84 ± 0.047 | 1.81 ± 0.045 | 2.04 ± 0.093 | 1.67 ± 0.035 |
| SQEREFSLLVKAEIPPE [SIN4] | 3.04 ± 0.1 | 2.98 ± 0.072 | 2.96 ± 0.073 | 2.83 ± 0.061 |
| RYNGGNDNIGANRSRFN [SMB1] | 3.24 ± 0.099 | 3.39 ± 0.078 | 3.14 ± 0.048 | 3.35 ± 0.08 |
| RHIKSKHEDLSLEQRQE [RPN4] | 2.97 ± 0.069 | 3.05 ± 0.086 | 2.79 ± 0.096 | 3.03 ± 0.066 |
| RNLDSATLKEIKSIIEQ [SMC3] | 3.25 ± 0.078 | 3.51 ± 0.087 | 3.2 ± 0.066 | 3.21 ± 0.068 |
| KFDSRIRGILMASGSTT [PRP8] | 2.44 ± 0.084 | 2.18 ± 0.11 | 2.06 ± 0.12 | 2.19 ± 0.13 |
| FCGKKTVKRGAAGIWTC [RPL43A] | 1.79 ± 0.072 | 1.88 ± 0.071 | 2.19 ± 0.11 | 1.92 ± 0.059 |
| LLSKIMLNLIDDVKNIL [RPN6] | 2.2 ± 0.13 | 1.4 ± 0.1 | 1.25 ± 0.13 | 1.22 ± 0.08 |
| NLERLRSDLQSKIQEIE [YIL149C/MLP2] | 3.08 ± 0.077 | 3.37 ± 0.076 | 3.49 ± 0.073 | 3.33 ± 0.1 |

Source: the supplement of paper PMC9732359
